To fix the notation:
T1: VEGFR-3-Fc (UniProt P35916 25-328)
T1 construct: domain: first three Ig domains; conditioned supernatant of 293T cells; also called VEGFR-3-Fc fusion protein; not shown: Fc fragment of the pIg vector
T1 sequence (looked up): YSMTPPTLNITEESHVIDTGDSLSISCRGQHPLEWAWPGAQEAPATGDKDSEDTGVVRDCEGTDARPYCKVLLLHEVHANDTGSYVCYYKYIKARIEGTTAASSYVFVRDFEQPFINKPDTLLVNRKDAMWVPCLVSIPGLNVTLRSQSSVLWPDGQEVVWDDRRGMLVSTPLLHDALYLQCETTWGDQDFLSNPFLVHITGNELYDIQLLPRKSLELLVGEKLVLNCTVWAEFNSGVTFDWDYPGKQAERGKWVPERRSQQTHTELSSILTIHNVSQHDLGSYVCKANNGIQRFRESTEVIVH

B1: 32-15 (ligand)
chain: GQNHHEVVKSIDNEWRKTQCMPIETLVDIFQEFGVATNTFFKPPCVSVYRCGGCCNSEGLQCVPTEESNITMQIMRITVPLSQGPKPVTISFANHTSCRCMSKLD
B2: 52-15 (ligand)
chain: B1 chain with G1A, Q2H, N3Y, H4N, H5T, V7I, V8L
notes: clone entry
B3: 63-8 (ligand)
chain: GQNHHEVVKFMDVYQRSYCHPREVCIDVGKEYPDEIEYIFKPPCVSVYRCGGCCNSEGLQCMNTSTSYLSKTLFEIKPHQGQHIGEMSFANHTSCRCMSKLD
B4: 61-4 (ligand)
chain: GQNHHEVVKFMDVYQRSYCHPREVCIDVGKEYPDEIEYIFKPSCVPLMRCGGCCNSEGLQCMNTSTSYLSKTLFEIKPHQGQHIGEMSFLQHNKCECRPKKD
B5: 13-6 (ligand)
chain: B3 chain with R22I, V24T, C25L, I26V, V28I, G29F, K30Q, S56D, Q60E
B6: 13-8 (ligand)
chain: B3 chain with R22I, V24T, C25L, I26V, V28I, G29F, K30Q
B7: 43-8 (ligand)
chain: B3 chain with G1A, Q2H, N3Y, H4N, H5T, V7I, V8L
B8: 43-6 (ligand)
chain: B3 chain with G1A, Q2H, N3Y, H4N, H5T, V7I, V8L, S56D, Q60E
B9: 32-14 (ligand)
chain: GQNHHEVVKSIDNEWRKTQCMPIETLVDIFQEFGVATNTFFKPPCVSVYRCGGCCNDEGLECMNTSTSYLSKTLFEITVPLSQGPKPVTISFANHTSCRCMSKLD
notes: clone entry
B10: 32-16 (ligand)
chain: B9 chain with D57S, E61Q
B11: 62-1 (ligand)
chain: GQNHHEVVKFMDVYQRSYCHPREVCIDVGKEFGVATNTFFKPPCVSVYRCGGCCNDEGLECVPTEESNITMQIMRIKPHQGQHIGEMSFLQHNKCECRPKKD
B12: 53-3 (ligand)
chain: AHYNTEILKSIDNEWRKTQCMPIETLVDIFQEYPDEIEYIFKPPCVSVYRCGGCCNSEGLQCVPTEESNITMQIMRIKPHQGQHIGEMSFLQHNKCECRPKKDLV
notes: clone entry
B13: 53-1 (ligand)
chain: AHYNTEILKSIDNEWRKTQCMPIETLVDIFQEYPDEIEYIFKPPCVSVYRCGGCCNDEGLECVPTEESNITMQIMRIKPHQGQHIGEMSFLQHNKCECRPKKD
B14: 53-7 (ligand)
chain: B13 chain with D57S, E61Q, L91A, Q92N, N94T, K95S, E97R, R99M, P100S, K102L
B15: 22-9 (ligand)
chain: AHYNTEILKSIDNEWRKTQCMPREVCIDVGKEFGVATNTFFKPPCVSVYRCGGCCNDEGLECVPTEESNITMQIMRITVPLSQGPKPVTISFLQHNKCECRPKKD
B16: 52-11 (ligand)
chain: B15 chain with R23I, V25T, C26L, I27V, V29I, G30F, K31Q, D57S, E61Q
B17: 52-9 (ligand)
chain: B15 chain with R23I, V25T, C26L, I27V, V29I, G30F, K31Q
B18: 74-13 (ligand)
chain: GQNHHEVVKSIDNEWRKTQCMPREVCIDVGKEFGVATNTFFKPSCVPLMRCGGCCNDEGLECVPTEESNITMQIMRITVPLSQGPKPVTISFANHTSCRCMSKLD
B19: 24-9 (ligand)
chain: B15 chain with P44S, S47P, V48L, Y49M
B20: 32-11 (ligand)
chain: B1 chain with A93L, N94Q, T96N, S97K, R99E, M101R, S102P, L104K
B21: 71-9 (ligand)
chain: GQNHHEVVKSIDNEWRKTQCMPREVCIDVGKEYPDEIEYIFKPSCVPLMRCGGCCNDEGLECVPTEESNITMQIMRITVPLSQGPKPVTISFLQHNKCECRPKKD
B22: 32-9 (ligand)
chain: B1 chain with S57D, Q61E, A93L, N94Q, T96N, S97K, R99E, M101R, S102P, L104K
B23: 22-11 (ligand)
chain: B15 chain with D57S, E61Q
B24: 72-15 (ligand)
chain: B18 chain with S44P, P47S, L48V, M49Y, D57S, E61Q
B25: 72-13 (ligand)
chain: B18 chain with S44P, P47S, L48V, M49Y
B26: 34-9 (ligand)
chain: GQNHHEVVKSIDNEWRKTQCMPIETLVDIFQEFGVATNTFFKPSCVPLMRCGGCCNDEGLECVPTEESNITMQIMRITVPLSQGPKPVTISFLQHNKCECRPKKD

Numbering of substitutions follows the chain as printed.

The first assay deals with T1, VEGFR-3-Fc. The assay is described as follows: receptor-Fc IP. Put shortly: (§1)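 fusion protein at 400 ng/ml in an IP mix (PBS, 1.5% BSA, 0.06% Tween 20, 3 μg/ml heparin) was combined with sample supernatant at a 1:2 ratio. Bound ligand captured by immunoprecipitation with pentahistidine antibody.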
With B1, the binding result is on record as “binds”.

As to B2, the binding result was “binds”.

As for B3, the binding result is “no binding”.

For the molecule B4, the binding result is recorded as “no binding”.

B5: the binding result is on record as “no binding”.

As for B6, the binding result was “no binding”.

Regarding B7, the binding result was “no binding”.

Consider B8, for which the binding result is recorded as “no binding”.

B9: the binding result was “binds”.

On to B10, for which the binding result is reported as “binds”.

Turning to B11, the binding result is listed as “no binding”.

In the case of B12, the binding result is “binds”.

Turning to B13, the binding result is “no binding”.

Turning to B14, the binding result is on record as “no binding”.

For the molecule B15, the binding result is reported as “no binding”.

Turning to B16, the binding result is on record as “binds”.

Take B17: the binding result is given as “binds”.

For the molecule B18, the binding result was “no binding”.

In the case of B19, the binding result was “no binding”.

In the case of B20, the binding result is on record as “binds”.

Regarding B21, the binding result is “no binding”.

B22: the binding result was “binds”.

Take B23: the binding result is on record as “no binding”.

As to B24, the binding result is given as “no binding”.

For the molecule B25, the binding result was “no binding”.

For B26, the binding result is recorded as “no binding”.

Another assay deals with T2, VEGFR-1-Fc (UniProt P17948 27-338).
T2 construct: domain: first three Ig domains; expressed in Drosophila S2 cells, purified on Protein A sepharose; also called VEGFR-1-Fc fusion protein; not shown: Fc fragment from the Signal-pIgPlus vector
T2 sequence (P17948 27-338): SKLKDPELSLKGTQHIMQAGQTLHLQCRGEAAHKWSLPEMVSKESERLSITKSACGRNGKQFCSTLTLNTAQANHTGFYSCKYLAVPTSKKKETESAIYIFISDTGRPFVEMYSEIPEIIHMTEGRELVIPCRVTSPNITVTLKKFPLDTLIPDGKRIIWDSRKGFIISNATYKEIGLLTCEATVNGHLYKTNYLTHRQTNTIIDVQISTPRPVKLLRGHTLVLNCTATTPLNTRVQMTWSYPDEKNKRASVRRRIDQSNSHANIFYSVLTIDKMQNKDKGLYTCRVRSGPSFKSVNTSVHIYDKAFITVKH
The assay is described as follows: receptor-Fc IP. The gist of the method:
as §1
As to B1, the binding result is listed as “no binding”.

In the case of B2, the binding result was “no binding”.

For B3, the binding result was “no binding”.

As for B4, the binding result is “no binding”.

For B5, the binding result was “no binding”.

As to B6, the binding result is on record as “no binding”.

For B7, the binding result was “no binding”.

As for B8, the binding result is “no binding”.

With B9, the binding result is listed as “no binding”.

Regarding B10, the binding result was “no binding”.

Turning to B11, the binding result was “binds”.

B12: the binding result is “binds”.

Consider B13, for which the binding result was “no binding”.

As for B14, the binding result was “no binding”.

Consider B15, for which the binding result was “no binding”.

Turning to B16, the binding result is reported as “no binding”.

In the case of B17, the binding result is reported as “no binding”.

Take B18: the binding result is on record as “no binding”.

Take B19: the binding result is listed as “no binding”.

Take B20: the binding result is on record as “no binding”.

In the case of B21, the binding result was “no binding”.

Take B22: the binding result is listed as “no binding”.

On to B23, for which the binding result is “no binding”.

As for B24, the binding result was “no binding”.

Regarding B25, the binding result was “no binding”.

With B26, the binding result is on record as “no binding”.

The target in another assay is T3, VEGFR-2-Fc (UniProt P35968 20-322).
T3 construct: domain: first 3 Ig domains; conditioned supernatant of 293T cells; also called VEGFR-2-Fc fusion protein; not shown: Fc fragment of the pIg vector
T3 sequence (P35968 20-322): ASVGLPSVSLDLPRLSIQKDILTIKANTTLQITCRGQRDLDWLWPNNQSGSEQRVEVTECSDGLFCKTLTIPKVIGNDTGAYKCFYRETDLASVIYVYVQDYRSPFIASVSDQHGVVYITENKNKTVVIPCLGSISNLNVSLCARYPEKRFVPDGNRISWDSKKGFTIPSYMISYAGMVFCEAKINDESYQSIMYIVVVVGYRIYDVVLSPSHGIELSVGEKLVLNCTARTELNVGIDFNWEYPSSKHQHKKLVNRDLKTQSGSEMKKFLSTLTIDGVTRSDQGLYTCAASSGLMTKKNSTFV
The assay is described as follows: receptor-Fc IP. Put shortly:
as §1
B1: the binding result is recorded as “no binding”.

For B2, the binding result is “no binding”.

Consider B3, for which the binding result is “no binding”.

Consider B4, for which the binding result is listed as “no binding”.

Regarding B5, the binding result is “no binding”.

Consider B6, for which the binding result was “no binding”.

For B7, the binding result is reported as “no binding”.

Take B8: the binding result is listed as “no binding”.

Take B9: the binding result was “no binding”.

Turning to B10, the binding result was “no binding”.

As to B11, the binding result is “no binding”.

On to B12, for which the binding result is reported as “binds”.

With B13, the binding result is recorded as “binds”.

B14: the binding result is on record as “binds”.

For B15, the binding result is on record as “no binding”.

Consider B16, for which the binding result is given as “no binding”.

For the molecule B17, the binding result was “no binding”.

With B18, the binding result is recorded as “no binding”.

As for B19, the binding result was “no binding”.

Regarding B20, the binding result was “no binding”.

Turning to B21, the binding result was “no binding”.

On to B22, for which the binding result is reported as “no binding”.

For the molecule B23, the binding result is reported as “no binding”.

Regarding B24, the binding result is “no binding”.

On to B25, for which the binding result is on record as “no binding”.

Consider B26, for which the binding result is reported as “no binding”.

These data come from patent US20080058263A1 (published 2008).
